To fix the notation:
B1: Anti-SIRP-α antibody 136, light chain Mut_I2T, heavy chain Mut_V34M (antibody, V domains shown)
VH: EVQLVESGGGVVQPGRSLRLSCAASGFTFSSYDMNWVRQAPGKGLEWVSLISGSGEIIYYADSVKGRFTISRDNSKNTLYLQMNSLRAEDTAVYYCAKENNRYRFFDDWGQGTLVTVSS
VL: ETVLTQSPGTLSLSPGERATLSCRASQSVYTYLAWYQQKPGQAPRLLIYGASSRATGIPDRFSGSGSGTEFTLTISSLQSEDFAVYYCQQYYDRPPLTFGGGTKVEIK
notes: Whole antibody
B2: Hum1/AB21_HC_Mutall (antibody, V domains shown)
VH: EVQLVESGGGVVQPGGSLRLSCAASGFTFSSNAMSWVRQAPGKGLEWVAGISAGGSDTYYPASVKGRFTISRDNSKNTLYLQMNSLRAEDTAVYYCARETWNHLFDYWGQGTLVTVSS
VL: SYELTQPPSVSVSPGQTARITCSGGSYSSYYYAWYQQKPGQAPVTLIYSDDKRPSNIPERFSGSSSGTTVTLTISGVQAEDEADYYCGGYDQSSYTNPFGGGTKLTVL
notes: Whole antibody
B3: Hum9/AB21_HC_Mutall (antibody, V domains shown)
VH: B2 VH
VL: B2 VL with S26A, T45L, L46V, N56G
notes: Whole antibody
B4: Anti-SIRP-α antibody 119, light chain Mut, heavy chain Mut (antibody, V domains shown)
VH: EVQLLESGGGVVQPGGSLRLSCAASGFSFSNFAVTWVRQAPGKGLEWVSTIGSGDTYYADSVKGRFTISRDNSKNTLYLQMNSLRAEDTAVYYCAKDSTVSWSGDFFDYWGQGTLVTVSS
VL: EIVLTQSPATLSVSPGERATLSCRASQNVKNDLAWYQQKPGQAPRLLIYAARIRETGIPARFSGSGSGTEFTLTISSLQSEDFAVYYCQQYYDWPPFTFGGGTKVEIK
notes: Whole antibody
B5: Anti-SIRP-α antibody 135, light chain wt, heavy chain Mut_V34M (antibody, V domains shown)
VH: B4 VH with L5V, N31I, F32Y, V34M, T35S, S53A, G54D, S101G
VL: EIVLTQSPATLSVSPGERVTFSCRASQNVRSDIAWYQQKPGQAPRLLIYAASSRDTGIPDRFSGSGSGTDFTLTISSLQSEDFGVYYCQQYYDWPPFTFGGGTKVEIK
notes: Whole antibody
B6: Anti-SIRP-α antibody 135, light chain Mut, heavy chain Mut (antibody, V domains shown)
VH: B4 VH with L5V, N31I, F32Y, T35S, S53A, G54D, S101G
VL: B5 VL with F21L, D60A
notes: Whole antibody
B7: Anti-SIRP-α antibody 119, light chain wt, heavy chain wt (antibody, V domains shown)
VH: B4 VH with V34M, K43E, Q112L
VL: B4 VL with L21F, K39R, A60E, S76T
notes: Whole antibody (FreeStyle 293-FS, protein A purified)
B8: Anti-SIRP-α antibody 119, light chain Mut, heavy chain Mut_V34M (antibody, V domains shown)
VH: B4 VH with V34M
VL: B4 VL
notes: Whole antibody

Positions count from the first letter of the chain named.

For one assay, the target named is T1, SIRP-α cynomolgus (cynomolgus, UniProt A0A2K5VYQ9 31-148).
T1 construct: Soluble analyte in SPR; also called cynomologous monkey SIRP-α
T1 sequence: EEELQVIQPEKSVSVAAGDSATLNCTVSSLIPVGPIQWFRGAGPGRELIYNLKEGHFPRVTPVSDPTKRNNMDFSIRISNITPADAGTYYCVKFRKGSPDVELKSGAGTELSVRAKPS
Description: SPR, antibody on GLC chip, SIRP as analyte. The procedure:
(§1) The running buffer was PBS pH 7.4 with 0.01% TWEEN-20 (PBST+). All analytes were used at their nominal concentrations as determined by A280 absorbance and using their molar calculated extinction coefficient. Analytes were injected in a “one-shot” kinetic mode as described (see, e.g., Bravman et al., Anal. Biochem. 2006, 358, 281-288).
(§2) For the method using a GLC chip, the analytes were injected and flowed over anti-SIRPα antibodies immobilized (˜1000 RUs) on GLC chips using Proteon Amine Coupling Kit. For the immobilization step, the GLC chip was activated with EDAC/Sulpho-NHS 1:1 (Biorad) diluted 1/100 for 300 s at 25 μL/min. Anti-SIRPα antibodies were diluted to 80 nM concentration in 10 mM sodium acetate buffer pH 4.5 and immobilized to the chip at 30 μL/min for 50 s. Chip was inactivated with ethanolamine for 300 s at 25 μL/min. The analytes (e.g., SIRP-α from different species, SIRP-β, SIRP-γ) were injected in a “one-shot” kinetic mode at nominal concentrations of 100, 33, 11, 3.7, 1.2, and 0 nM. Association times were monitored for 90 s at 100 uL/min, and dissociation times were monitored for 1200 s. The surfaces were regenerated with a 2:1 v/v blend of Pierce IgG elution buffer/4M NaCl.
(§3) Biosensor data were double-referenced by subtracting the interspot data (containing no immobilized protein) from the reaction spot data (immobilized protein) and then subtracting the response of a buffer “blank” analyte injection from that of an analyte injection. Double-referenced data were fit globally to a simple Langmuir model and the KD value was calculated from the ratio of the apparent kinetic rate constants (KD=kd/kₐ).
For orientation: Surface plasmon resonance follows binding to a sensor surface in real time, without labels.
One may read the Kd as a measure of binding affinity in units of concentration. Low values mean tighter binding, high ones weaker binding. For the molecule B1, the equilibrium dissociation constant (Kd) is 2.1 nM. In other words, the single-digit nanomolar range.
Turning to B2, the dissociation constant Kd was 0.029 nM.
Same read-out and setting: in the case of B3 it was 0.22 nM; in that of B4, 0.2 nM; in that of B5, 0.08 nM.
Molecule B6 gave a Kd of 0.13 nM.
For the molecule B7, binding was characterised by a dissociation constant (Kd) of 0.11 nM.
With B8, the affinity, expressed as Kd, was 0.12 nM.

For a further assay, the target named is T2, Human SIRPγ (human, UniProt Q9P1W8 29-147, limits assumed).
T2 construct: Soluble analyte in SPR
T2 sequence (Q9P1W8 29-147 limits assumed): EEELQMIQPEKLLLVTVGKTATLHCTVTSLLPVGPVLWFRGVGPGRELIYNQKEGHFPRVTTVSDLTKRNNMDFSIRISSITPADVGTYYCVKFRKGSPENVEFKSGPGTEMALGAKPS
Description: SPR, antibody on GLC chip, SIRP as analyte. Here is the method: as §1, §2, §3
For B1, the equilibrium dissociation constant (Kd) was determined as 34 nM. This counts as double-digit nanomolar.
Same read-out and setting: in the case of B2 it was 0.001 nM; in that of B3, 0.035 nM.
As for B4, binding was put at a Kd of 0.34 nM. This Kd is about 9.7-fold higher than that of the molecule before.
In the case of B5, the Kd came to 0.53 nM.
On the same count and under the same terms, in the case of B6 it was 0.73 nM; in that of B7, 0.27 nM.
Same read-out and setting: in the case of B8 it was 0.26 nM.

The target of another assay is T3, Human SIRPβ (human, UniProt O00241 30-148).
T3 construct: Soluble analyte in SPR
T3 sequence (O00241 30-148): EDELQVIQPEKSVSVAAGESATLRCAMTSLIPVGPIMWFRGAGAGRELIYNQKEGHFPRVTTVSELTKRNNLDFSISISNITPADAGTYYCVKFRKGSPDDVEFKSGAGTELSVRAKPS
Description: SPR, antibody on GLC chip, SIRP as analyte. The procedure:
as §1, §2, §3
The molecule B1 showed a Kd of 2.2 nM.
The same measure, in the same setting: the figure for B2 is 0.0067 nM; for B3 it is 0.057 nM; for B4 it is 0.46 nM.
Consider B5, for which the dissociation constant Kd amounted to 0.16 nM. Compared with the last molecule, the Kd is about 2.9-fold lower.
Same read-out and setting: in the case of B6 it was 0.19 nM; in that of B7, 0.34 nM; in that of B8, 0.34 nM.

The target in a further assay is T4, SIRP-α mouse BL6 (mouse (BL6), UniProt P97797 32-150, limits assumed).
T4 construct: Soluble analyte in SPR
T4 sequence (looked up): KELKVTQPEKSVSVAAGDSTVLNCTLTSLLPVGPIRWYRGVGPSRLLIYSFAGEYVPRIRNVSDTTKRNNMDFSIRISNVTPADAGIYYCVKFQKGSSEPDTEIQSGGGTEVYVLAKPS
Description: SPR, antibody on GLC chip, SIRP as analyte. The procedure: as §1, §2, §3
Take B1: the Kd came to 14 nM. This counts as double-digit nanomolar.
For the molecule B2, the Kd amounted to 9.5 nM.
B4: the binding result is “no binding (tested: 100 nM (highest analyte concentration))”.
On the same count and under the same terms, the entry for B5 is “no binding (tested: 100 nM (highest analyte concentration))”; for B6 it is “no binding (tested: 100 nM (highest analyte concentration))”; for B7 it is “no binding (tested: 100 nM (highest analyte concentration))”.
Same read-out and setting: the entry for B8 is “no binding (tested: 100 nM (highest analyte concentration))”.

In the next assay the target is T5, SIRP-α human v2 (human, UniProt P78324 31-149, limits assumed).
T5 construct: Soluble analyte in SPR
T5 sequence (P78324 other isoform, or with tags, fused parts or gaps limits assumed): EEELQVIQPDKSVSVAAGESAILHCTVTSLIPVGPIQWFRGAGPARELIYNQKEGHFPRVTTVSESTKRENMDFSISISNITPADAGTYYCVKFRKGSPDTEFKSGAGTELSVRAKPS
Description: SPR, antibody on GLC chip, SIRP as analyte. Here is the method: as §1, §2, §3
In the case of B1, binding was put at a Kd of 17 nM.
On the same count and under the same terms, in the case of B2 it was 0.0046 nM.
Regarding B3, binding was put at a Kd of 0.12 nM.
Same read-out and setting: in the case of B4 it was 0.088 nM; in that of B5, 0.016 nM.
In the case of B6, the Kd amounted to 0.018 nM. The Kd values of the last two molecules are within 1.5-fold of each other.
Still for that read-out and setting: the figure for B7 is 0.068 nM; for B8 it is 0.069 nM.
